According to US20210253725A1 (BIONTECH, published 2021):
Positions count from the first letter of the chain named. In names and notes the source's numbering stands.

T1: CD27 expressed on the cell surface (HT1080_CD27 cells) (human, UniProt P26842 20-260)
T1 construct: whole, on cells; also called K562_CD27
T1 sequence (looked up): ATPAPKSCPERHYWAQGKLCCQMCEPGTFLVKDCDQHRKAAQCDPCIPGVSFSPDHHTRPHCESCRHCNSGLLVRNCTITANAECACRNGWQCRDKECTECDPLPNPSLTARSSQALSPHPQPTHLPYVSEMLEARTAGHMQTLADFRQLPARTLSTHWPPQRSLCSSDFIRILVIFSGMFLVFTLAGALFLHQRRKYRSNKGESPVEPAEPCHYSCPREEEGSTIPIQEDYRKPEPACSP

T2: CD27 protein (His-tagged, Sino Biological Inc. 10039-H08B1) (human, UniProt P26842 20-192)
T2 construct: bought; coated onto ELISA plates; also called human CD27; recombinant protein; not shown: His tag
T2 sequence (looked up): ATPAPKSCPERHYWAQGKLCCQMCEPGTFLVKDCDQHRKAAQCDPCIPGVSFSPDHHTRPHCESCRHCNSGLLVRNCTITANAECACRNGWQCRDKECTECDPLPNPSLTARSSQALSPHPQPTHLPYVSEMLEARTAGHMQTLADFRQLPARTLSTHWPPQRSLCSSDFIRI

B1: P018.S.03.A.H05 (antibody, V domains shown)
VH: QSLEESGGDLVKPGASLTLTCTASGFSFSDRHYMCWVRQAPGKGLEWIGSIYTGKDSIDYASWAKGRFTISKTSSTTVTLQMTSLTAADTATYFCARDLLYGSSSGYLHTWGPGTLVTVSS
VL: DIVMTQTPSSVSEPVGGTVTIKCQASHNIYSNLAWYQQKLGQPPKLLIYYASTLASGVPSRFKGSGSGTEYTLTISDLESDDAATYYCQSAYYGSIDITFGGGTEVVAQ
notes: V regions on human Ig constant parts; also called AB27_63
B2: P018.S.04.A.H04 (antibody, V domains shown)
VH: QSVEESGGRLVTPGTPLTLTCTVSRFSLSTSTMTWVRQAPGKGLEWIGIINGGGSAYYANWAKGRFTISKTSTTVDLKITSPTTEDTATYFCARSYDSYDDIYGTSRLYAFDPWGPGTLVTVSS
VL: AYDMTQTPASVEVAVGGTVTINCQASESIYSNLAWYQQKPGQPPKLLIYRASYLASGVSSRFKGSGSGTQFTLTISGVESADAATYYCQQGYSSSDVDNAFGGGTEVVVK
notes: V regions on human Ig constant parts; also called AB27_79
B3: P018.S.04.A.F04 (antibody, V domains shown)
VH: QSVEESGGRLVTPGTPLTLTCTVSGFSLSNYAMSWVRQAPGKGLEWIGIIYASGTTYYARWAKGRFTISRTSTTVDLKISSPTTEDTATYFCAREYDSYDYAYGSSIYAFDPWGPGTLVTVSS
VL: B2 VL with A9S, E12S, V13A, N22K, P43R, Y53T, T74S, D96N, A100V
notes: V regions on human Ig constant parts; also called AB27_77
B4: P018.S.03.A.C02 (antibody, V domains shown)
VH: B2 VH
VL: B2 VL with A14V, N22S, S31A, D96N, A100S
notes: V regions on human Ig constant parts; also called AB27_44
B5: P018.S.01.A.F05 (antibody, V domains shown)
VH: QEQLEESGGDLVKPEGSLTLTCTASGFSFSSSYWICWVRQAPGKGLEWIGCIITGRGNTYYANWAKGRFTISKTSSTTVTLQMTSLTAADTAIYSCARGPGGADPVNLWGPGTLVTVSS
VL: DVVMTQTPASVSEPVGGTVTIKCQASQSIYSNLAWYQQKPGQPPKLLIYRASTLTSGVPSRFKGSGSGTQFTLTISDLESADAATYYCQCTYDGSSYVPNAFGGGTEVVVK
notes: V regions on human Ig constant parts; also called AB27_20
B6: P018.S.05.A.C06 (antibody, V domains shown)
VH: QSLEESGGRLVTPGTPLTLTCTASGFSLSNYYITWVRQAPGEGLEWIGTISTAGNTYFASWAKGRFTISRTSTTVDLKMTSPTTEDTATYFCARDGAGDSNYYRNLWGQGTLVTVSS
VL: DIVLTQTPASVEAAVGGTVTIKCQASQSIDRFLAWYQQKPGQPPKLLIVDASTLESGVPSRFSGSGSGTEFTLTISDLESDNAATYYCQQGYSISDIDNVFGGGTEVVVK
notes: V regions on human Ig constant parts; also called AB27_85
B7: P018.S.06.A.E01 (antibody, V domains shown)
VH: B6 VH with N30S, I33M, A62V, A93T
VL: B6 VL with D1A, V3D, L4M, Q27E, S93A
notes: V regions on human Ig constant parts; also called AB27_104
B8: P018.S.06.A.F01 (antibody, V domains shown)
VH: B6 VH with N30S, I33M
VL: B6 VL with D1A, I2Y, V3D, L4M, Q27E
notes: V regions on human Ig constant parts; also called AB27_107
B9: P018.S.07.A.F03 (antibody, V domains shown)
VH: B6 VH with K63N
VL: B6 VL
notes: V regions on human Ig constant parts; also called AB27_127
B10: P018.S.05.A.E04 (antibody, V domains shown)
VH: QEQLEESGGDLVKPEGSLTLTCTASGFSFSSYWICWVRQAPGKGLEWIACIATHSGTDFYASWAKGRFTISKTSSTTVTLQMTSLTAADTATYFCARDPYGFNGDYFSLWGPGTLVTVSS
VL: ALVMTQTPASVSAAVGGTVTINCQASQSVYNSNYLSWYQQKPGQPPKLLIYKASTLASGVPSRFKGSGSGTQFTLTISGVESDDAATYYCAGYKSYTNDDNGFGGGTEVVVK
notes: V regions on human Ig constant parts; also called AB27_90
B11: P018.S.01.A.D04 (antibody, V domains shown)
VH: QEQLEESGGRLVTPGGTLTLTCTASGFSLSNYDMSWVRQAPGKGLEWIGYIWSDGNTDYASWAAGRFTASRASTTVDLKMTSLTTEDTATYFCARGYTGFFLWGPGTLVTVSS
VL: DVVMTQTPSSVSTAVGDTVTIKCQASQSIGSSYLSWYQQKPGQPPKLLIYKTSTLASGVPSRFKGSGSGTEFTLTISDLESDDAATYYCQCTYYGGSWRVAFGGGTEVVVK
notes: V regions on human Ig constant parts; also called AB27_12
B12: P018.S.01.A.G02 (antibody, V domains shown)
VH: B11 VH with N31S, S61T
VL: B11 VL with T13A, D17G
notes: V regions on human Ig constant parts; also called AB27_21
B13: P018.S.05.A.H02 (antibody, V domains shown)
VH: B11 VH with S30N, N31S
VL: B11 VL with T13A, D17G, K51E, T52A
notes: V regions on human Ig constant parts; also called AB27_94
B14: P018.S.07.A.F04 (antibody, V domains shown)
VH: QSLEESGGRLVTPGTPLTLTCTVSGFSLSSHAMSWVRQAPGKGLEYIGIIDTDASASYASWAKGRFTISRTSTTVDLKITSPTTEDTATYFCARDGGYTDYSYYAMDLWGPGTLVTVSS
VL: DIVMTQTPASVEAAVGGTVTIKCQASETIYVNLAWYQQKPGQPPKLLIYRASTLASGVSSRFKGSGSGTEFTLTISDVKSVDAATYYCHQAYRRSDVGNIFGGGTEVVVK
notes: V regions on human Ig constant parts; also called AB27_128
B15: P018.S.08.A.H02 (antibody, V domains shown)
VH: QSLEESGGRLVTPGTPLTLTCTASGFSLSYYYMTWVRQAPGKGLEWIGITGGGGDTYYGTWAKGRFTISKTSTTVDLKMTSPTTEDTATYFCARGTDGAAHTGFALWGQGTLVTVSS
VL: DIVMTQTPASVEAAVGGTVTIKCQASEDISSRLSWYQQKPGQPPKLLIYLASTLASGVPSRFKGSGSGTQFTLTISDLESADAATYYCQSSSYGTSTIYGTFGGGTEVVVK
notes: V regions on human Ig constant parts; also called AB27_142
B16: P018.S.02.A.G03 (antibody, V domains shown)
VH: QSVEESGGRLVTPGTPLTLTCTVSGFSLSSYVMSWVRQAPGKGLEWIGYIDYGGTAYYASWAKGRFTISKTSTTVELKITSPTIEDTATYFCARGGYGGYILVTGLWGPGTLVTVSS
VL: DIVMTQTPASVSEPVGGTVTIKCQASQTIISYLSWYQQKPGQPPKLLIYGASTLASGVPSRFKGSGSVTEYTLTISDLESADAATYYCQTYYGGGPFGNGFGGGTEVVVK
notes: V regions on human Ig constant parts; also called AB27_38
B17: P018.S.02.A.F06 (antibody, V domains shown)
VH: B16 VH with A56P
VL: B16 VL with I2V, T28S, I30S, L33C, K39R, V68G
notes: V regions on human Ig constant parts; also called AB27_36
B18: P018.S.09.A.H04 (antibody, V domains shown)
VH: B16 VH with I50S, S60N, G98D, I101L
VL: B16 VL with T28S, I30S, S34A, G50S, P59S, V68G
notes: V regions on human Ig constant parts; also called AB27_161
B19: P018.S.07.A.B06 (antibody, V domains shown)
VH: QEQLVESGGDLVKPGTSLTLTCKASGLDFSSTPYMCWVRQAPGKGLEWIACIYTGSVIYTYYASWAKDRFTISKISSTSVTLQMTSLTVADTATYFCARSPAGYAAYGYGGFNLWGPGTLVTVSS
VL: AIEMTQTPFSVSAAVGGTVTINCQASQNIYNNLAWYQQKPGQPPKLLIYGASTLESGVPSRFEGSGSGTEYTLTISDLESDDAATYYCQSAYYSSSATDMAFGGGTEVVVK
notes: V regions on human Ig constant parts; also called AB27_118

Molecular target: T1, CD27 expressed on the cell surface …
Experiment: cellular binding assay, HT1080_CD27 cells
Note: test concentration or dose not given here.

Binder	Cellular binding assay [RFU]
B1	294
B2	291
B3	320
B4	317
B5	369
B6	351
B7	354
B8	310
B9	380
B10	332
B11	341
B12	363
B13	336
B14	296
B15	352
B16	357
B17	294
B18	314
B19	372

Molecular target: T2, CD27 protein (His-tagged, Sino …)
Experiment: ELISA on coated His-tagged CD27

Binder	ELISA [abs. corr.]
B1	3.36
B2	3.46
B3	3.35
B4	3.36
B5	3.35
B6	3.35
B7	3.35
B8	3.4
B9	3.53
B10	3.35
B11	3.4
B12	3.67
B13	3.47
B14	3.35
B15	3.58
B16	3.13
B17	3.24
B18	3.36
B19	3.35

Molecular target: T1, CD27 expressed on the cell surface …
Experiment: cell-based or functional assay

Binder	IL-8, cross-linked by F(ab')2 fragment [abs. corr.]	IL-8 [abs. corr.]
B1	1.39	0.401
B2	1.98	0.579
B3	2.49	1.6
B4	1.58	0.373
B5	1.18	0.559
B6	1.11	0.539
B7	1.55	0.525
B8	1.08	0.405
B9	1.41	0.444
B10	1.33	0.813
B11	2.2	0.175
B12	1.88	0.848
B13	1.9	0.369
B14	1.58	0.424
B15	1.91	0.328
B16	1.48	-0.061
B17	1.73	0.094
B18	1.4	0.274
B19	1.07	0.218
